Data from paper PMC4126857 (Structure (London, England : 1993), 2014).
Where no end group is shown, it is not given here.

T1: 6×His-ZYG-1 CPB K454E (C. elegans, UniProt Q9GT24 338-564, K454E)
T1 sequence (looked up): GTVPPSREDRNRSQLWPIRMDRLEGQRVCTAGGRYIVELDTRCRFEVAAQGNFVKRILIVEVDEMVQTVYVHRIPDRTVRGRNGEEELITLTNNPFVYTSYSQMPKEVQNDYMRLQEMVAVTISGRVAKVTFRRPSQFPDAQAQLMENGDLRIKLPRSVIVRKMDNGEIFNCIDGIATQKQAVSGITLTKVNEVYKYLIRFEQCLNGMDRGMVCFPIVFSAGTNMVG


Key:
[1] = target: T1, 6×His-ZYG-1 CPB K454E; test: pull-down
[2] = target: the molecule itself; test: SAXS

binding result [1]	Binder	stoichiometry N [2]
binds	MEDDAPMNLCNEQFEEIEDSPIDDNDNESFYNADGDVELEEEEVHE (domain or fragment, C. elegans, UniProt P91870 1-46, looked up, also: MBP fusion) [MBP-CeSPD-2 AR (aa 1-46), WT]	
	Drosophila Plk4 cryptic polo box (DmPlk4 CPB), aa 383-601 (domain or fragment, UniProt O97143 383-601, looked up, for crystallization: lysine methylated; for MST: labelled with Monolith NT.115 Labeling Kit RED-NHS) RISVPPLNTKRLLPTRYKTKNAIMSILRNGEVVLEFLKFRPTYNEDRINDICRISDDGQRIIIYQPDPGRGLPVREQPPDLQIPSGDCVYNYDNLPSKHWKKYIYGARFVGLVKSKTPKVTYFSTLGKCQLMETMTDFEIRFYSGAKLLKTPSEGLKVYDRNGMLLSDYSCSESRSLIEHGNECFTHCVNISNALEVAQTKDNSCFPVTIGRRPITDVQ	2
	ZYG-1 cryptic polo box (CPB), aa 338-564 (domain or fragment, C. elegans, UniProt Q9GT24 338-564, looked up, for crystallization: selenomethionine-substituted, lysine methylated; for MST: labelled with Monolith NT.115 Labeling Kit RED-NHS) GTVPPSREDRNRSQLWPIRMDRLEGQRVCTAGGRYIVELDTRCRFEVAAQGNFVKRILIVEVDEMVQTVYVHRIPDRTVRGRNGEEELITLTNNPFVYTSYSQMPKEVQNDYMRLQKMVAVTISGRVAKVTFRRPSQFPDAQAQLMENGDLRIKLPRSVIVRKMDNGEIFNCIDGIATQKQAVSGITLTKVNEVYKYLIRFEQCLNGMDRGMVCFPIVFSAGTNMVG	2
